The target of series [1] is Kapβ2 (Homo sapiens) (UniProt Q92973). To be noted: cited from earlier work.
For series [2] the target is unchanged. The experiment in a line: fluorescence anisotropy. As to conditions: cited from earlier work. In general terms: Polarisation of emitted light reports the rotation of a fluorescent probe.
The target of a further series is hnRNPA1 (UniProt P09651).
Series [3] concerns the molecule itself. Briefly: microfluidic resistive pulse sensing (MRPS); increasing concentrations of the RNA-binding protein alone; MBP cleaved in situ by TEV (0.04 mg/ml), 1.5–2 h at room temperature; C-400 and C-2000 cartridges (70–2000 nm); FUS: 20 mM HEPES pH 7.4, 207 mM NaCl, 1.3 mM DTT, 0.7 mM EDTA, 3.3 % glycerol; hnRNPA1 and hnRNPA2: same with 66.7 mM NaCl.

Read-outs that look alike come from different tables or passages of the source.

For orientation: Kd means a measure of binding affinity in units of concentration.

Kapβ2 (Homo sapiens), sequence (Q92973 whole entry): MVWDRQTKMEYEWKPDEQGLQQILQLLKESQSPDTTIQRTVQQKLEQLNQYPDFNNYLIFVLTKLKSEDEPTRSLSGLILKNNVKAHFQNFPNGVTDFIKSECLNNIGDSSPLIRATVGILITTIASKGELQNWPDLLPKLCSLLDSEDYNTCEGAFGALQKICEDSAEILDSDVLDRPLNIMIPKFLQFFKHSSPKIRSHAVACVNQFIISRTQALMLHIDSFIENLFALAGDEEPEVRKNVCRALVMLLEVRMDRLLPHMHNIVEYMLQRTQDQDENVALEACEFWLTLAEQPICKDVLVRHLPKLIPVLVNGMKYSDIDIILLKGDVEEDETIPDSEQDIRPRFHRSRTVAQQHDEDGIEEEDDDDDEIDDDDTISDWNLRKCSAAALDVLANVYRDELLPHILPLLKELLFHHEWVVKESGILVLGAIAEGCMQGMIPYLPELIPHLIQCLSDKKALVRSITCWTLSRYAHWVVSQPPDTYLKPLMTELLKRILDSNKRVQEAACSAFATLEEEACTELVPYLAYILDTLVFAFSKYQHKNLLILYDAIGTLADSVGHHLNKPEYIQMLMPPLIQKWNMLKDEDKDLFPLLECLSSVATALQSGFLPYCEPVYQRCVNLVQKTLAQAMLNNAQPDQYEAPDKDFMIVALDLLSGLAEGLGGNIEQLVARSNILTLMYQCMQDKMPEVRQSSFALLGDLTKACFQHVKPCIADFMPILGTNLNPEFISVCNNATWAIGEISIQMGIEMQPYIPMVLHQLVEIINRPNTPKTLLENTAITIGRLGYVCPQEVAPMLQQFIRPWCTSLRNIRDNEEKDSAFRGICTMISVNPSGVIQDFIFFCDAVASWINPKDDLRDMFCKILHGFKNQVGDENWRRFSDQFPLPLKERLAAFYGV
hnRNPA1, sequence (P09651 whole entry): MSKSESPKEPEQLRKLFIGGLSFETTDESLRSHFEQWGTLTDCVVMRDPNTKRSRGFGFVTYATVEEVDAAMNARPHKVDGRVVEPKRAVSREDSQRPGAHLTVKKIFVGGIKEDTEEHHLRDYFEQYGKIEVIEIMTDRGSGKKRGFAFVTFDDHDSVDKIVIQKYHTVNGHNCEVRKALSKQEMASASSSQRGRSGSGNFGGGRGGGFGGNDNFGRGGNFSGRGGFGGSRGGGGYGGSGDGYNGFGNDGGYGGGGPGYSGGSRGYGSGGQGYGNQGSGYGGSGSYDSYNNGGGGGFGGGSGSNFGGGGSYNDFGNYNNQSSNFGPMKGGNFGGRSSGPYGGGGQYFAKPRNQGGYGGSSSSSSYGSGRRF

FUS (from UniProt P35637): the Kd was 50 nM with Kapβ2 (Homo sapiens) [1] and 43 nM in the series with Kapβ2 (Homo sapiens) [2].
The molecule “Karyopherin-β2 (from UniProt Q92973 1-898) (natural protein)” gave a saturation concentration (csat) of hnRNPA1 for condensate formation, brightfield microscopy; ~4 μM without Kapβ2, measured with 2 μM Kapβ2 in the series with hnRNPA1 of 6 µM.

B1: FUS^P525L (natural protein, UniProt P35637 1-526, looked up)
chain: MASNDYTQQATQSYGAYPTQPGQGYSQQSSQPYGQQSYSGYSQSTDTSGYGQSSYSSYGQSQNTGYGTQSTPQGYGSTGGYGSSQSSQSSYGQQSSYPGYGQQPAPSSTSGSYGSSSQSSSYGQPQSGSYSQQPSYGGQQQSYGQQQSYNPPQGYGQQNQYNSSSGGGGGGGGGGNYGQDQSSMSSGGGSGGGYGNQDQSGGGGSGGYGQQDRGGRGRGGSGGGGGGGGGGYNRSSGGYEPRGRGGGRGGRGGMGGSDRGGFNKFGGPRDQGSRHDSEQDNSDNNTIFVQGLGENVTIESVADYFKQIGIIKTNKKTGQPMINLYTDRETGKLKGEATVSFDDPPSAKAAIDWFDGKEFSGNPIKVSFATRRADFNRGGGNGRGGRGRGGPMGRGGYGGGGSGGGGRGGFPSGGGGGGGQQRAGDWKCPNPTCENMNFSWRNECNQCKAPKPDGPGGGPGGSHMGGNYGDDRRGGRGGYDRGGYRGRGGDRGGFRGGRGGGDRGGFGPGKMDSRGEHRQDRRERLY
notes: Production of the variant is not described on its own; also called ALS-linked FUS variant P525L; not shown: MBP, N-terminal, cleaved
For B1, in series [3], the binding result is recorded as “binds”.

The values above are taken from paper doi:10.1101/2025.11.14.688546, “Nuclear-import receptors remodel the dilute phase to suppress phase transitions of RNA-binding proteins with prion-like domains” (bioRxiv, 2025).
